Assay [1] addresses BAH domain of human BAHD1 (residues 589-780), wild type (human) (UniProt Q8TBE0). Nature of the assay: ITC; BAH domain (wild type or mutant) titrated with histone peptide; 15 °C, MicroCal iTC200; 20 mM Tris pH 8.5, 500 mM (NH)2SO4, 5% glycerol; "One Set of Binding Sites" fitting model. In general terms: ITC needs no label: the signal is the heat of the interaction.
For assay [2], the target named is T1, BAH domain of human BAHD1 (BAH589-780), wild type (Homo sapiens, UniProt Q8TBE0).
T1 construct: The BAH domain encompassing residues 589-780 of human BAHD1 was cloned in to a; 10xHis-SUMO (N, cleaved yes); made in house; host or cells: E. coli BL21 (DE3)
T1 sequence (Q8TBE0 589-780): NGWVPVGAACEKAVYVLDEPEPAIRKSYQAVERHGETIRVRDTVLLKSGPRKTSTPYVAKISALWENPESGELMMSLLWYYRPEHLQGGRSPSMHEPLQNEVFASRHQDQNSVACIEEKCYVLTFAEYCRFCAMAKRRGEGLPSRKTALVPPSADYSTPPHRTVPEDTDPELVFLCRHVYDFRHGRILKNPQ
Nature of the assay: Isothermal titration calorimetry (ITC), wild type BAH domain. Format: binding. The settings on record: wild type BAHBAHD1.

Assay [3] concerns the target BAH_(BAHD1) domain (aa 589–780), as used in ITC and HXMS (human) (UniProt Q8TBE0). As to the kind of experiment: ITC; BAH_(BAHD1) domain titrated with histone peptides; optimized buffer condition (Tm 39°C in thermal shift assays).
In assay [4] the target is BAHD1 BAH domain, 589-780 (UniProt Q8TBE0). As to the kind of experiment: isothermal titration calorimetry. To be noted: reference: H3K27me3 peptide; sites S28.
In assay [5] the target is T2, BAH domain of human BAHD1 (residues 589-780), wild type (human, UniProt Q8TBE0 589-780).
T2 construct: BAHD1 (bromo adjacent homology domain containing protein 1), human, BAH domain, residues 589-780 of the full-length protein (1-780); also called BAH589-780; BAH_(BAHD1); source: E. coli BL21 (DE3), purified (HisTrap, tag cleaved by ULP1, Superdex G75); not shown: 10xHis-SUMO, N-terminal, cleaved
T2 sequence (looked up): T1 sequence (Q8TBE0 589-780)
Nature of the assay: ITC; BAH domain (wild type or mutant) titrated with histone peptide; 15 °C, MicroCal iTC200; 20 mM Tris pH 8.5, 500 mM (NH)2SO4, 5% glycerol; "One Set of Binding Sites" fitting model. The settings on record: both partners purified.

No end group written: not given here. me3 = trimethyl on lysine side chain

As a reminder, the stoichiometry N is the number of molecules, sites or subunits per partner or assembly. One may read the Kd as the concentration at which binding is half-saturated.

On to histone H3 (15-42) K27me1 peptide, for which the stoichiometry N in assay [1] is 1.

For the molecule “NH2-ARTKQTAR(me2s)KS-COOH [H31-10R8me2s, histone H3 peptide residues 1-10 with R8me2s]”, in assay [2], the “binding observed by ITC (in words)” value is listed as “no bindings were observed”.

Consider histone H3 (15-42) K27me3 S28ph peptide, for which the stoichiometry N in assay [1] turned out to be 1.

In assay [1], histone H3 (15-42) K27me3 peptide returned a stoichiometry N of 1.

Molecule histone H3 (15-42) K27me2 peptide returned a stoichiometry N in assay [1] of 1.1.

With “H3_(1-15)K9me3 peptide (from UniProt P68431 2-16)”, in assay [3], the equilibrium dissociation constant (Kd) turned out to be 2600 µM.

For the molecule “H3K27me3 peptide, H3 frame 19–34 (from UniProt P68431 20-35)”, the fold reduction of binding against H3 (15-42)K27me3 in assay [3] stood at 3.9 fold.

As for “H3K27me3 peptide, H3 frame 21–32 (from UniProt P68431 22-33)”, the fold reduction of binding against H3 (15-42)K27me3 in assay [3] worked out at 7.8 fold.

Consider “ARTKQTARKSTGGK(ac)A-NH2 [H31-15K14ac, histone H3 peptide residues 1-15 with acetylated K14]”, for which, in assay [2], the “binding observed by ITC (in words)” value was “no bindings were observed”.

Consider H3K27me1 peptide, for which the Kd in assay [3] amounted to 2000 µM.

As to histone H3 15-42 H3K27me3S28ph peptide, in assay [4], the KD entry is on record as “weaker; reference 15.9”.

B1: histone H3 (19-34) K27me3 peptide (peptide)
peptide: QLATKAARKSAPATGG
modifications: trimethyl-lysine at K27 (K(me3))
notes: histone H3, residues 19-34 (A31: as in H3.1/H3.2); source: synthetic peptide (SciLight Biotechnology)
For the molecule B1, the Kd in assay [5] was found to be 61.3 µM.

B2: histone H3 (21-32) K27me3 peptide (peptide)
peptide: ATKAARK(me3)SAPAT
notes: histone H3, residues 21-32 (A31: as in H3.1/H3.2); source: synthetic peptide (SciLight Biotechnology)
Turning to B2, in assay [5], binding was put at a Kd of 124 µM and the “stoichiometry N” value stood at 1.1.
